Experimental data taken from patent US20160122742A1 (published 2016).

Tests used:
Flag tagged ORC5 = biological target: T1, Flag tagged ORC5 (UniProt O43913)
T1 sequence: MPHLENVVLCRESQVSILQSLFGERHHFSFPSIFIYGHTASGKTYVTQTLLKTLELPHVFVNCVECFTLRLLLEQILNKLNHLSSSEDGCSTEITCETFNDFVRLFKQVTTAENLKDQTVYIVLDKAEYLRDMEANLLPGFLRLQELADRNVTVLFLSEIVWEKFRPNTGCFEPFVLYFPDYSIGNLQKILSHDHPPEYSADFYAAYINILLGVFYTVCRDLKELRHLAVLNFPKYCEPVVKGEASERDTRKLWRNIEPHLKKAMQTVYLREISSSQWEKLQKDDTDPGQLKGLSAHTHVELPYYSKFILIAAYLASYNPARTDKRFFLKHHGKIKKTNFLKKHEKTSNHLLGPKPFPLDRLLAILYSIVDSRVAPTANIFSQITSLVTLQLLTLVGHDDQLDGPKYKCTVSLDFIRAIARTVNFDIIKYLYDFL

[1] = biological target: T2, Flag tagged ORC1 (N-terminal Flag, pCS2-Flag) (human, UniProt Q13415 1-861); assay: anti-Flag co-immunoprecipitation from U2OS cells, western blot with anti-Myc
T2 construct: Transiently expressed in U2OS cells; also called Flag-ORC1
T2 sequence: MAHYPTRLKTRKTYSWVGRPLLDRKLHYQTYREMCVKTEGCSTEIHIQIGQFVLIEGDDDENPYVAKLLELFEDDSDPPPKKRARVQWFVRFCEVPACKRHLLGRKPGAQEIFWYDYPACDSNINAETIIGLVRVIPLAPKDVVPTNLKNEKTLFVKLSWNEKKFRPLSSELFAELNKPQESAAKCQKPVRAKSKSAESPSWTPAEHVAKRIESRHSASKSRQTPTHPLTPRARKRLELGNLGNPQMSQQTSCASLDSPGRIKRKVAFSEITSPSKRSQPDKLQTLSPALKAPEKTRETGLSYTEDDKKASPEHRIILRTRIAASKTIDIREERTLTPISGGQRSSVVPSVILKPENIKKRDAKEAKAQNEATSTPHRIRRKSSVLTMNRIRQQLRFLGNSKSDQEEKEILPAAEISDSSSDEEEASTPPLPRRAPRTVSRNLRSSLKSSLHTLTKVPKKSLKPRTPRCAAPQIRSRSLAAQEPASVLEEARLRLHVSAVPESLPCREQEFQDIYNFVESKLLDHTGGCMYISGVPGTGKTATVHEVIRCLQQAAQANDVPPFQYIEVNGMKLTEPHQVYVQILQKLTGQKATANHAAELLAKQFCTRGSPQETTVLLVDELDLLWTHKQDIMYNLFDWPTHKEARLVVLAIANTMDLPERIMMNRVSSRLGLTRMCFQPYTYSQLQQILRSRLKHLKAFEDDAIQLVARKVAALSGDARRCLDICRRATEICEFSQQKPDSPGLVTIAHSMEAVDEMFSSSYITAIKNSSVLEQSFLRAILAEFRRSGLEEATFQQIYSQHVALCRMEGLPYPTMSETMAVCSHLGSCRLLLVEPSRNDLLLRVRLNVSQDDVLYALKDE
Procedure: For cell lysis, immunoprecipitation and western blotting were performed following standard methods. Briefly, cells were lysed in TK300 lysis buffer (20 mM Tris-HCl pH 7.9; 300 mM KCl, 5 mM MgCl2, 10% glycerol; 0.5% NP-40 plus protease inhibitors cocktail) on ice for 30 min. The protein concentration of the clarified lysates was estimated using the BCA method (Pierce). For immunoprecipitation experiments, equivalent amounts of protein samples were incubated at 4° C. with anti-Flag coupled agarose beads (Sigma Aldrich) for 4 h. After extensive washing with TK300 lysis buffer, bound proteins were eluted in boiling Laemmli buffer. Samples were runs on pre-cast gradient gel (NuPage Novex, Invitrogen and Mini-PROTEAN TGX, Biorad) and transferred to nitrocellulose membrane.
U20S cells were transiently transfected with plasmids coding for Myc-tagged WT Obi1 or mutated Obi1, and also co-transfected with plasmids coding for Flag-ORC1. 48 hours post-transfection, cells were lyzed and the soluble fraction was subjected to an anti-Flag immunoprecipitation (IP:Flag—FIG. 24B). Ectopic proteins were detected by western blotting. Under these conditions, specific Obi1/ORC1 complex is detected in the immunoprecipitate. In contrast, no association is observed between ORC1 and the mutated Obi1 protein (FIG. 24B).

[2] = biological target: T3, human ORC1 with C-terminal Flag-HA tag (human, UniProt Q13415 1-861); assay: TAP-TAG (tandem Flag/HA immunoprecipitation from HeLa S3 nuclear extract), silver staining and mass spectrometry
T3 construct: Stably expressed in HeLa S3 cells; also called ORC1 FLAG-HA; FLAG-HA tagged ORC1; not shown: in-frame C-terminal Flag-HA tag of pOZ-FH-C
T3 sequence: T2 sequence
Procedure: The beads were washed twice with 1 mL of HA-IP Buffer (150 mM KCl; 20 mM Tris pH 7.5 0.05% NP40; 0.1% Tween; 10% Glycerol; 5 mM MgCl₂; 1 mM DTT and 10 mM PMSF). After the last centrifugation, beads were resuspended in HA-IP Buffer (1 vol of Beads). Extracts were incubated with Flag beads for 4 h with agitation at 4 C. Beads were pelleted (3 min at 3000 rpm 4° C.). Beads were washed 5 times with HA IP Buffer: Beads are pelleted (3K 3 min 4° C.) and the supernatant discarded. Complexes were eluted from the beads by incubating in 3 beads volume of HA IP Buffer supplemented with Flag peptide (200 μg/mL, Sigma) for 1 hour at 4 C with agitation. The supernatant was kept on ice and a second elution was conducted. The eluates were pooled and subjected to an anti-HA immunoprecipitation. Before, anti-HA coupled agarose beads (SantaCruz Biotechnology) were washed with glycine buffer as described above. 10 μL of beads was used per IP. Flag eluates were incubated with anti-HA beads for 2 hours at 4 C with agitation. Beads were pelleted (3 min at 3000 rpm 4° C.). Beads were washed 5 times with HA IP Buffer: Beads are pelleted (3K 3 min 4° C.) and the supernatant discarded. Complexes were eluted from the beads by incubating in 3 beads volume of HA IP Buffer supplemented with HA peptide (400 μg/mL, Roche) for 1 hour at 4 C with agitation. The supernatant was keep on ice and a second elution was conducted. […]

[3] = biological target: T4, Flag tagged ORC1 (N-terminal Flag, pCS2-Flag)
T4 chain: T2 sequence

Flag tagged ORC5, O43913 = biological target: T5, Flag tagged ORC5, O43913
T5 chain: T1 sequence

Flag tagged ORC3, Q9UBD5 = biological target: T6, Flag tagged ORC3, Q9UBD5
T6 chain: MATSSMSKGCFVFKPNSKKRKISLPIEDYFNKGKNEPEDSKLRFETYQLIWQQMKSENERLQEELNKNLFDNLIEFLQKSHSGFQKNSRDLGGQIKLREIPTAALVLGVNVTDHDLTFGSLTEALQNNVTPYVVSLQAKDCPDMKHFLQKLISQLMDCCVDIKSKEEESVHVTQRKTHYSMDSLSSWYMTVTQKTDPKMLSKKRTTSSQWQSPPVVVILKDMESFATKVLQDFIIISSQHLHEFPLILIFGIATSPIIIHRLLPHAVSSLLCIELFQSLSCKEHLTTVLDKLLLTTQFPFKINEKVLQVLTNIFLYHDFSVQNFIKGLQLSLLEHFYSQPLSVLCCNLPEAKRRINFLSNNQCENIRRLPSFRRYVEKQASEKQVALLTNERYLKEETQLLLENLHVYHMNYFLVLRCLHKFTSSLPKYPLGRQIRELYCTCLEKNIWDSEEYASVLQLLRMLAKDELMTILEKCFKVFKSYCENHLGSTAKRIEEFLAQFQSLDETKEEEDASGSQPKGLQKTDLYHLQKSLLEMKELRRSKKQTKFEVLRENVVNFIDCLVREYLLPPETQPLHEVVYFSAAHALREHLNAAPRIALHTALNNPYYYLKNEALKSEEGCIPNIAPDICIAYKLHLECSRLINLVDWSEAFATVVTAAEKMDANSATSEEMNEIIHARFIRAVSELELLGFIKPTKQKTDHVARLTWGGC

Molecule: Xenopus Myc6-tagged Obi1 WT
- ubiquitination of Flag-ORC5 (high-molecular weight ubiquitin adducts after anti-Flag IP) (Flag tagged ORC5): both human and xenopus Obi1, sharing 35% identity of their amino acid sequence, are able to ubiquitinate ORC5

B1: Myc-tagged mutated Obi1 (truncated Obi1 protein of the Meier-Gorlin patient) (other)
chain: MAQTVQNVTLSLTLPITCHICLGKVRQPVICINNHVFCSICIDLWLKNNSQCPACRVPITPENPCKEIIGGTSESEPMLSHTVRKHLRKTRLELLHKEYEDEIDCLQKEVEELKSKNLSLESQIKTILDPLTLVQGNQNEDKHLVTDNPSKINPETVAEWKKKLRTANEIYEKVKDDVDKLKEANKKLKLENGGLVRENLRLKAEVDNRSPQKFGRFAVAALQSKVEQYERETNRLKKALERSDKYIEELESQVAQLKNSSEEKEAMNSICQTALSADGKGSKGSEEDVVSKNQGDSARKQPGSSTSSSSHLAKPSSSRLCDTSSARQESTSKADLNCSKNKDLYQEQVEVMLDVTDTSMDTYLEREWGNKPSDCVPYKDEELYDLPAPCTPLSLSCLQLSTPENRESSVVQAGGSKKHSNHLRKLVFDDFCDSSNVSNKDSSEDDISRSENEKKSVFFFPKDRILGLLFHKLCPKLRF
notes: also called C.1370_1371delAA,P.GLU457VALFSX24; not shown: Myc tag
- binding result [1]: no binding

B2: ORC Ubiquitin-ligase 1 (OBI1), human, endogenous protein of the cells (enzyme)
chain: MAQTVQNVTLSLTLPITCHICLGKVRQPVICINNHVFCSICIDLWLKNNSQCPACRVPITPENPCKEIIGGTSESEPMLSHTVRKHLRKTRLELLHKEYEDEIDCLQKEVEELKSKNLSLESQIKTILDPLTLVQGNQNEDKHLVTDNPSKINPETVAEWKKKLRTANEIYEKVKDDVDKLKEANKKLKLENGGLVRENLRLKAEVDNRSPQKFGRFAVAALQSKVEQYERETNRLKKALERSDKYIEELESQVAQLKNSSEEKEAMNSICQTALSADGKGSKGSEEDVVSKNQGDSARKQPGSSTSSSSHLAKPSSSRLCDTSSARQESTSKADLNCSKNKDLYQEQVEVMLDVTDTSMDTYLEREWGNKPSDCVPYKDEELYDLPAPCTPLSLSCLQLSTPENRESSVVQAGGSKKHSNHLRKLVFDDFCDSSNVSNKDSSEDDISRSENEKKSECFSSPKTGFWDCCSTSYAQNLDFESSEGNTIANSVGEISSKLSEKSGLCLSKRLNSIRSFEMNRTRTSSEASMDAAYLDKISELDSMMSESDNSKSPCNNGFKSLDLDGLSKSSQGSEFLEEPDKLEEKTELNLSKGSLTNDQLENGSEWKPTSFFLLSPSDQEMNEDFSLHSSSCPVTNEIKPPSCLFQTEFSQGILLSSSHRLFEDQRFGSSLFKMSSEMHSLHNHLQSPWSTSFVPEKRNKNVNQSTKRKIQSSLSSASPSKATKS
notes: Untagged endogenous Obi1 of HeLa S3 or U2OS cells, co-purified with tagged baits or acting on transfected ORC subunits; also called RNF219; Obi1/RFN219
- binding result [2]: binds
- ubiquitination of Flag tagged ORC subunits (HA-ubiquitin adducts after anti-Flag IP) [3]: OC1, ORC3 and ORC5 are ubiquitinated in presence of Obi1
- poly-ubiquitination of Flag ORC5 after siRNA knockdown of Obi1 (Flag tagged ORC5, O43913): cells that does not express Obi1 are not able to poly-ubiquitinate either ORC3 or ORC5
- ubiquitination of Flag tagged ORC subunits (HA-ubiquitin adducts after anti-Flag IP) (Flag tagged ORC5, O43913): OC1, ORC3 and ORC5 are ubiquitinated in presence of Obi1, and in particular that ORC3 and ORC5 show strong polyubiquitylation
- poly-ubiquitination of Flag ORC3 after siRNA knockdown of Obi1 (Flag tagged ORC3, Q9UBD5): cells that does not express Obi1 are not able to poly-ubiquitinate either ORC3 or ORC5
- ubiquitination of Flag tagged ORC subunits (HA-ubiquitin adducts after anti-Flag IP) (Flag tagged ORC3, Q9UBD5): OC1, ORC3 and ORC5 are ubiquitinated in presence of Obi1, and in particular that ORC3 and ORC5 show strong polyubiquitylation

B3: human Myc6-tagged Obi1 WT (protein)
chain: B2 chain
- polyubiquitination of Flag-ORC5 (HA-ubiquitin adducts after anti-Flag IP) (Flag tagged ORC5, O43913): only the full length Obi1 protein is able to polyubiquitinate ORC5
- ubiquitination of Flag-ORC5 (high-molecular weight ubiquitin adducts after anti-Flag IP) (Flag tagged ORC5, O43913): both human and xenopus Obi1, sharing 35% identity of their amino acid sequence, are able to ubiquitinate ORC5
